Test results taken from US20250019427A1 (BYOMASS, published 2025).
Where a chain is given by its changes, count along the chain named. Each block holds one binder with its values, some of them ahead of it.

Assays:
[1] = biological target: T1, GDF15 (Homo sapiens (Human), UniProt Q99988 30-308); test: cell-based or functional assay
T1 sequence: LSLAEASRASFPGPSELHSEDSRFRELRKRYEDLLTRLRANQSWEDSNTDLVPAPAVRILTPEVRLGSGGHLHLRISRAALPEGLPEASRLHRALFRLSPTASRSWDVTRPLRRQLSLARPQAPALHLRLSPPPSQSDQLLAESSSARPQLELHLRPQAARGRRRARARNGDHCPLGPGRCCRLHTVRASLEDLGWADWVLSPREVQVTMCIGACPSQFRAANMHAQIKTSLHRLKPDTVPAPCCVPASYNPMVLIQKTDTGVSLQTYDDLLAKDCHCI

[2] = biological target: T2, Human Activin A Fc (human, UniProt P08476 311-426); test: Octet BLI, IgG on tip, avid
T2 sequence (looked up): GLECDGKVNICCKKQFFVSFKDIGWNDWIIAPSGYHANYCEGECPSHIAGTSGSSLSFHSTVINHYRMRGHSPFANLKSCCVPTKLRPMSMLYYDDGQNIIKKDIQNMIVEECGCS

[3] = biological target: T3, GDNF (UniProt P39905 78-211); test: Octet BLI, IgG on tip, avid
T3 sequence (looked up): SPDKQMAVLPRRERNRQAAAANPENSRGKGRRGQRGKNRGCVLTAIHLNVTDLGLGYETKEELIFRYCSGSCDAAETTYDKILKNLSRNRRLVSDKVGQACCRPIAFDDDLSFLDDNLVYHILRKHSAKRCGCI

[4] = biological target: T4, Human BMP9 (human, UniProt Q9UK05 320-429); test: Octet BLI, IgG on tip, avid
T4 sequence (looked up): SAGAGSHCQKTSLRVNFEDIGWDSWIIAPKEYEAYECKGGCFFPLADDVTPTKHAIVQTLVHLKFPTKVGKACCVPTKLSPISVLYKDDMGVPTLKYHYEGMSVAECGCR

[5] = biological target: GDF8 (UniProt O14793 267-375); test: Octet BLI, IgG on tip, avid
[6] = biological target: T5, GDF11 (UniProt O95390 299-407); test: Octet BLI, IgG on tip, avid
T5 construct: Also the GDF-11 ligand of the ActRIIB/SMAD reporter assay

[7] = biological target: T6, GDF10 (UniProt P55107 369-478); test: Octet BLI, IgG on tip, avid
T6 sequence (looked up): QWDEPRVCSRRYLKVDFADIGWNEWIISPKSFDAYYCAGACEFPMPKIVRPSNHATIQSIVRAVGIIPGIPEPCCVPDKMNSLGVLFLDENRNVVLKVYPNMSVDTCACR

[8] = biological target: T7, Human BMP10 (human, UniProt O95393 317-424); test: Octet BLI, IgG on tip, avid
T7 sequence (looked up): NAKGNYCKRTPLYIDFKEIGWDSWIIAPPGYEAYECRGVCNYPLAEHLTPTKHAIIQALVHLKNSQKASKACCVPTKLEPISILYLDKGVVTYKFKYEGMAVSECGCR

[9] = biological target: T8, Human Activin B (human, UniProt P09529 293-407); test: Octet BLI, IgG on tip, avid
T8 construct: Also used for the Activin B ligand of the ActRIIB/SMAD reporter assay, where the species is not restated
T8 sequence (looked up): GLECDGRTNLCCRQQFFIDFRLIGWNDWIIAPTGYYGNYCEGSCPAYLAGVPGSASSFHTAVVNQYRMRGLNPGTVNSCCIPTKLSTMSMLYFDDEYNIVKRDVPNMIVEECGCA

T5 sequence (O95390 299-407 limits assumed): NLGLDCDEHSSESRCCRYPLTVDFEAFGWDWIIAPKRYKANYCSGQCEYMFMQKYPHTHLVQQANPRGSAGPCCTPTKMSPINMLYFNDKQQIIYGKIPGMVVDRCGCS

- GDF15 - GFRAL RET pERK IC50 (pM) [1]: 88.7 pM
- binding result [2]: no binding (tested: 100 nM)
- Kd [3]: 31.4 nM
- binding result [4]: no binding (tested: 100 nM)
- binding result [5]: no binding (tested: 100 nM)
- binding result [6]: no binding (tested: 100 nM)
- binding result [7]: no binding (tested: 100 nM)
- binding result [8]: no binding (tested: 100 nM)
- binding result [9]: no binding (tested: 100 nM)
B1: Clone M IgG (antibody, V domains shown)
VH: QVQLVQSGAEVKKPGASVKVSCKASGYTFDSYGINWVRQAPGQGLEWMGWISAYSGDTAYAQELQGRVTMTTDTSTSTAYMELRSLRSDDTAVYYCVRDTQYGGSPYWGQGTLVTVSS
VL: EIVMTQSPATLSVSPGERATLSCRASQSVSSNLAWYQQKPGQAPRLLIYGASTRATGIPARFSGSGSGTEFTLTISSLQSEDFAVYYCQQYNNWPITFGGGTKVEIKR
notes: IgG format

- GDF15 - GFRAL RET pERK IC50 (pM) [1]: 13.5 pM
- GDF15 - GFRAL-RET Luciferase IC50 (pM) [1]: 274 pM
- binding result [2]: no binding (tested: 100 nM)
- Kd [3]: 229 nM
- binding result [4]: no binding (tested: 100 nM)
- binding result [5]: no binding (tested: 100 nM)
- binding result [6]: no binding (tested: 100 nM)
- binding result [7]: no binding (tested: 100 nM)
- binding result [8]: no binding (tested: 100 nM)
- binding result [9]: no binding (tested: 100 nM)
B2: Clone L IgG (antibody, V domains shown)
VH: QVQLVQSGAEVKKPGASVKVSCKASGYTFASYDIIWVRQAPGQGLEWMGWISALSGDTVYAQKLQGRVTMTTDTSTSTAYMELRSLRSDDTAVYYCARTRHDTSGIRFDYWGQGTLVTVSS
VL: DIQMTQSPSSVSASVGDRVTITCRASQGIDSWLAWYQQKPGKAPKLLIYAASSLQSGVPSRFSGSGSGTDFTLTISSLQPEDFATYYCQQVHSFPITFGGGTKVEIKR
notes: IgG format

- GDF15 - GFRAL-RET Luciferase IC50 (pM) [1]: 150 pM
- binding result [2]: no binding (tested: 100 nM)
- binding result [3]: no binding (tested: 100 nM)
- binding result [4]: no binding (tested: 100 nM)
- binding result [5]: no binding (tested: 100 nM)
- binding result [6]: no binding (tested: 100 nM)
- Kd [7]: 26.7 nM
- binding result [8]: no binding (tested: 100 nM)
- binding result [9]: no binding (tested: 100 nM)
B3: Clone O IgG (antibody, V domains shown)
VH: QVQLVQSGAEVKKPGATVKVSCKASGYTFDSLGMSWVRQAPGQGLEWMGYISTYSGDTVYAQKLQGRVTMTTDTSTSTAYMELRSLRSDDTAVYYCARESGQQVSALDPWGQGTLVTVSS
VL: B2 VL with D30S, S31R, V91G, H92A, I96L
notes: IgG format
